Assays:
Test in all cases: SPOT array
[1] = target: Sho1 SH3 (SHO1_YEAST), P40073
[2] = target: T1, Boi1 SH3 (BOI1_YEAST), P38041
T1 chain: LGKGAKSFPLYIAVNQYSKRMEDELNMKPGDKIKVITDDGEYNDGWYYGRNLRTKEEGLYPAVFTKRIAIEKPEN

[3] = target: T2, Boi2 SH3 (BOI2_YEAST), P39969
T2 chain: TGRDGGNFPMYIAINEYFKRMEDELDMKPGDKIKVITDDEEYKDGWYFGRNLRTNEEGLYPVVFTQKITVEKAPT

[4] = target: T3, Yhr016c SH3 (YSC84_YEAST), P32793
T3 chain: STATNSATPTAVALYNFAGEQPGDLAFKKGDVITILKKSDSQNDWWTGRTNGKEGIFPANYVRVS

[5] = target: T4, Rvs167 SH3 (RV167_YEAST), P39743
T4 chain: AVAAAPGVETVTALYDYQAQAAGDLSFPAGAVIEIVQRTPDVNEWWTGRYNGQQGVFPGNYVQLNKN

[6] = target: T5, Yfr024 SH3 (LSB3_YEAST), P43603
T5 chain: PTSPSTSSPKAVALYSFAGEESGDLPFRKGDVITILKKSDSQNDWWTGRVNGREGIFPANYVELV

[7] = target: T6, Myo5 SH3 (MYO5_YEAST), Q04439
T6 chain: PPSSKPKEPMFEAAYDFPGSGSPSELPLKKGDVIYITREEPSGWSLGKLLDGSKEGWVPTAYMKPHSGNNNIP

Sequence of Sho1 SH3 (SHO1_YEAST), P40073 (P40073 295-366): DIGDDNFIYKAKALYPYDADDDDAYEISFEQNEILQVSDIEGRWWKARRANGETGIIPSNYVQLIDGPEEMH

RRIRKEHPGEPNVI [YOR090C 334-347] showed a normalised SPOT signal, Boehringer light units (BLU); mean over the file's lines of this peptide [1] of 123, a normalised SPOT signal, Boehringer light units (BLU); mean over the file's lines of this peptide [2] of 920 and a normalised SPOT signal, Boehringer light units (BLU); mean over the file's lines of this peptide [3] of 9. The normalised SPOT signal, Boehringer light units (BLU); mean over the file's lines of this peptide [4] was 60.5, the normalised SPOT signal, Boehringer light units (BLU); mean over the file's lines of this peptide [5] was 106 and the normalised SPOT signal, Boehringer light units (BLU); mean over the file's lines of this peptide [6] was 570. The normalised SPOT signal, Boehringer light units (BLU); mean over the file's lines of this peptide [7] was 308.

RRKLRTVPGVPLIH [YOR004W 127-140] showed a normalised SPOT signal, Boehringer light units (BLU); mean over the file's lines of this peptide [1] of 85.3, a normalised SPOT signal, Boehringer light units (BLU); mean over the file's lines of this peptide [2] of 89 and a normalised SPOT signal, Boehringer light units (BLU); mean over the file's lines of this peptide [3] of 20.1. For the same binder, the normalised SPOT signal, Boehringer light units (BLU); mean over the file's lines of this peptide [4] was 772, the normalised SPOT signal, Boehringer light units (BLU); mean over the file's lines of this peptide [5] was 6330 and the normalised SPOT signal, Boehringer light units (BLU); mean over the file's lines of this peptide [6] was 2640. It also gave a normalised SPOT signal, Boehringer light units (BLU); mean over the file's lines of this peptide [7] of 2010.

RRLKKNLPSLPTPV [YOR127W 138-151] gave a normalised SPOT signal, Boehringer light units (BLU); mean over the file's lines of this peptide [1] of 27000, a normalised SPOT signal, Boehringer light units (BLU); mean over the file's lines of this peptide [2] of 1760 and a normalised SPOT signal, Boehringer light units (BLU); mean over the file's lines of this peptide [3] of 41.1. For the same binder, the normalised SPOT signal, Boehringer light units (BLU); mean over the file's lines of this peptide [4] was 50.6, the normalised SPOT signal, Boehringer light units (BLU); mean over the file's lines of this peptide [5] was 280 and the normalised SPOT signal, Boehringer light units (BLU); mean over the file's lines of this peptide [6] was 395. The normalised SPOT signal, Boehringer light units (BLU); mean over the file's lines of this peptide [7] was 824.

RRRTRLRPPTPLSQ [YPL269W 616-629] showed a normalised SPOT signal, Boehringer light units (BLU); mean over the file's lines of this peptide [1] of 76.1, a normalised SPOT signal, Boehringer light units (BLU); mean over the file's lines of this peptide [2] of 137 and a normalised SPOT signal, Boehringer light units (BLU); mean over the file's lines of this peptide [3] of 41.1. The normalised SPOT signal, Boehringer light units (BLU); mean over the file's lines of this peptide [4] was 104, the normalised SPOT signal, Boehringer light units (BLU); mean over the file's lines of this peptide [5] was 423 and the normalised SPOT signal, Boehringer light units (BLU); mean over the file's lines of this peptide [6] was 819. The normalised SPOT signal, Boehringer light units (BLU); mean over the file's lines of this peptide [7] was 1510.

Work on RSRSKKDPGIPSNF [YER006W 41-54] yielded a normalised SPOT signal, Boehringer light units (BLU); mean over the file's lines of this peptide [1] of 118, a normalised SPOT signal, Boehringer light units (BLU); mean over the file's lines of this peptide [2] of 585 and a normalised SPOT signal, Boehringer light units (BLU); mean over the file's lines of this peptide [3] of 6.9. The normalised SPOT signal, Boehringer light units (BLU); mean over the file's lines of this peptide [4] was 52.3, the normalised SPOT signal, Boehringer light units (BLU); mean over the file's lines of this peptide [5] was 159 and the normalised SPOT signal, Boehringer light units (BLU); mean over the file's lines of this peptide [6] was 360. For the same binder, the normalised SPOT signal, Boehringer light units (BLU); mean over the file's lines of this peptide [7] was 800.

With RTFFKLPPNLPEAE [YHR017W 94-107] the normalised SPOT signal, Boehringer light units (BLU); mean over the file's lines of this peptide [1] was 154, the normalised SPOT signal, Boehringer light units (BLU); mean over the file's lines of this peptide [2] was 220 and the normalised SPOT signal, Boehringer light units (BLU); mean over the file's lines of this peptide [3] was 5.1. The normalised SPOT signal, Boehringer light units (BLU); mean over the file's lines of this peptide [4] was 32.8, the normalised SPOT signal, Boehringer light units (BLU); mean over the file's lines of this peptide [5] was 204 and the normalised SPOT signal, Boehringer light units (BLU); mean over the file's lines of this peptide [6] was 1050. For the same binder, the normalised SPOT signal, Boehringer light units (BLU); mean over the file's lines of this peptide [7] was 2610.

Binder RTPSKPDPMEPENT [YOR196C 194-207] has a normalised SPOT signal, Boehringer light units (BLU); mean over the file's lines of this peptide [1] of 18, a normalised SPOT signal, Boehringer light units (BLU); mean over the file's lines of this peptide [2] of 28.1 and a normalised SPOT signal, Boehringer light units (BLU); mean over the file's lines of this peptide [3] of 35.4. The normalised SPOT signal, Boehringer light units (BLU); mean over the file's lines of this peptide [4] was 21.1, the normalised SPOT signal, Boehringer light units (BLU); mean over the file's lines of this peptide [5] was 19.3 and the normalised SPOT signal, Boehringer light units (BLU); mean over the file's lines of this peptide [6] was 78.9. The normalised SPOT signal, Boehringer light units (BLU); mean over the file's lines of this peptide [7] was 187.

With RYSFKLLPPQPGSK [YER114C 841-854] the normalised SPOT signal, Boehringer light units (BLU); mean over the file's lines of this peptide [1] was 15500, the normalised SPOT signal, Boehringer light units (BLU); mean over the file's lines of this peptide [2] was 796 and the normalised SPOT signal, Boehringer light units (BLU); mean over the file's lines of this peptide [3] was 47.8. It also gave a normalised SPOT signal, Boehringer light units (BLU); mean over the file's lines of this peptide [4] of 23.5, a normalised SPOT signal, Boehringer light units (BLU); mean over the file's lines of this peptide [5] of 84 and a normalised SPOT signal, Boehringer light units (BLU); mean over the file's lines of this peptide [6] of 352. The normalised SPOT signal, Boehringer light units (BLU); mean over the file's lines of this peptide [7] was 190.

For RYPFRMIPELPPKR [YMR004W 186-199], the normalised SPOT signal, Boehringer light units (BLU); mean over the file's lines of this peptide [1] was 2730, the normalised SPOT signal, Boehringer light units (BLU); mean over the file's lines of this peptide [2] was 14100 and the normalised SPOT signal, Boehringer light units (BLU); mean over the file's lines of this peptide [3] was 552. The normalised SPOT signal, Boehringer light units (BLU); mean over the file's lines of this peptide [4] was 7330, the normalised SPOT signal, Boehringer light units (BLU); mean over the file's lines of this peptide [5] was 14800 and the normalised SPOT signal, Boehringer light units (BLU); mean over the file's lines of this peptide [6] was 18600. For the same binder, the normalised SPOT signal, Boehringer light units (BLU); mean over the file's lines of this peptide [7] was 3570.

For SANGKFIPSRPAPK [YHL007C 465-478], the normalised SPOT signal, Boehringer light units (BLU); mean over the file's lines of this peptide [1] was 75.2, the normalised SPOT signal, Boehringer light units (BLU); mean over the file's lines of this peptide [2] was 128 and the normalised SPOT signal, Boehringer light units (BLU); mean over the file's lines of this peptide [3] was 5.4. The normalised SPOT signal, Boehringer light units (BLU); mean over the file's lines of this peptide [4] was 14.7, the normalised SPOT signal, Boehringer light units (BLU); mean over the file's lines of this peptide [5] was 147 and the normalised SPOT signal, Boehringer light units (BLU); mean over the file's lines of this peptide [6] was 539. It also gave a normalised SPOT signal, Boehringer light units (BLU); mean over the file's lines of this peptide [7] of 6760.

For SDNSKSEPLPPVIT [YFR019W 1795-1808], the normalised SPOT signal, Boehringer light units (BLU); mean over the file's lines of this peptide [1] was 23.8, the normalised SPOT signal, Boehringer light units (BLU); mean over the file's lines of this peptide [2] was 0 and the normalised SPOT signal, Boehringer light units (BLU); mean over the file's lines of this peptide [3] was 1.4. The normalised SPOT signal, Boehringer light units (BLU); mean over the file's lines of this peptide [4] was 32.7, the normalised SPOT signal, Boehringer light units (BLU); mean over the file's lines of this peptide [5] was 54.5 and the normalised SPOT signal, Boehringer light units (BLU); mean over the file's lines of this peptide [6] was 21.6. For the same binder, the normalised SPOT signal, Boehringer light units (BLU); mean over the file's lines of this peptide [7] was 130.

SEAKRKFPEAPEVP [YNL121C 455-468] showed a normalised SPOT signal, Boehringer light units (BLU); mean over the file's lines of this peptide [1] of 3.8, a normalised SPOT signal, Boehringer light units (BLU); mean over the file's lines of this peptide [2] of 66.4 and a normalised SPOT signal, Boehringer light units (BLU); mean over the file's lines of this peptide [3] of 7. For the same binder, the normalised SPOT signal, Boehringer light units (BLU); mean over the file's lines of this peptide [4] was 19.7, the normalised SPOT signal, Boehringer light units (BLU); mean over the file's lines of this peptide [5] was 116 and the normalised SPOT signal, Boehringer light units (BLU); mean over the file's lines of this peptide [6] was 18.5. The normalised SPOT signal, Boehringer light units (BLU); mean over the file's lines of this peptide [7] was 393.

In the case of SEMHRAAPETPRSI [YKL050C 40-53], the normalised SPOT signal, Boehringer light units (BLU); mean over the file's lines of this peptide [1] is reported as 95.5, the normalised SPOT signal, Boehringer light units (BLU); mean over the file's lines of this peptide [2] is reported as 151 and the normalised SPOT signal, Boehringer light units (BLU); mean over the file's lines of this peptide [3] is reported as 28.9. It also gave a normalised SPOT signal, Boehringer light units (BLU); mean over the file's lines of this peptide [4] of 140, a normalised SPOT signal, Boehringer light units (BLU); mean over the file's lines of this peptide [5] of 207 and a normalised SPOT signal, Boehringer light units (BLU); mean over the file's lines of this peptide [6] of 904. It also gave a normalised SPOT signal, Boehringer light units (BLU); mean over the file's lines of this peptide [7] of 322.

From paper PMC314469, “Protein Interaction Networks by Proteome Peptide Scanning” (PLoS Biology, 2004)
